According to US20080181901A1:

Target: endogenous Na,K-ATPase of tsA201 cells
Assay: cell-based or functional assay

decrease in endogenous ouabain-sensitive 86Rb+ uptake into intact tsA201 cells: 19%
Substance: full-length MONaKA transfected into tsA201 cells (86Rb+ uptake assay)
